In this assay the target is T1, FcγRIIb extracellular domain with C-terminal His tag (human, UniProt P31994 43-217).
T1 construct: extracellular domain; also called FcgRIIb; 2b
T1 sequence (looked up): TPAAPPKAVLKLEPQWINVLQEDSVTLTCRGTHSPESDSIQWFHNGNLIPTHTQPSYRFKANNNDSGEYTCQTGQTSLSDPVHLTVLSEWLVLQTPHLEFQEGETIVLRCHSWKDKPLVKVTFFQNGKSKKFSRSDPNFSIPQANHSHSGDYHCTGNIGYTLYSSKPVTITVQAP
As to the kind of experiment: SPR (Biacore), relative binding.

B1: GpH7-A5/GpH7-B3 variant P331_06M/GpL16-k0 (antibody, human IgG1, kappa)
heavy 1: not shown
heavy 2: not shown
light: DIVMTQSPLSLPVTPGEPASISCQASESLVHSNRNTYLHWYLQKPGQSPQLLIYKVSNRFSGVPDRFSGSGSGTDFTLKISRVEAEDVGVYYCSQNTHVPPTFGQGTKVEIERTVAAPSVFIFPPSDEQLKSGTASVVCLLNNFYPREAKVQWKVDNALQSGNSQESVTEQDSKDSTYSLSSTLTLSKADYEKHKVYACEVTHQGLSSPVTKSFNRGEC
notes: also called He Ab P331_06M
Turning to B1, the He/Con_2b is 102 % of HeCon Ab GpH7-A5/GpH7-B3/GpL16-k0.

B2: GpH7-A5/GpH7-B3 variant L234_20W/GpL16-k0 (antibody, human IgG1, kappa)
heavy 1: not shown
heavy 2: not shown
light: B1 light
notes: also called He Ab L234_20W
Turning to B2, the He/Con_2b is 114 % of HeCon Ab GpH7-A5/GpH7-B3/GpL16-k0.

B3: GpH7-A5/GpH7-B3 variant N325_07I/GpL16-k0 (antibody, human IgG1, kappa)
heavy 1: not shown
heavy 2: not shown
light: B1 light
notes: also called He Ab N325_07I
B3: the He/Con_2b was 171 % of HeCon Ab GpH7-A5/GpH7-B3/GpL16-k0.

B4: GpH7-A5/GpH7-B3 variant S337_07I/GpL16-k0 (antibody, human IgG1, kappa)
heavy 1: not shown
heavy 2: not shown
light: B1 light
notes: also called He Ab S337_07I
For B4, the He/Con_2b was 104 % of HeCon Ab GpH7-A5/GpH7-B3/GpL16-k0.

B5: GpH7-A5/GpH7-B3 variant P271_09D/GpL16-k0 (antibody, human IgG1, kappa)
heavy 1: not shown
heavy 2: not shown
light: B1 light
notes: also called He Ab P271_09D
As for B5, the He/Con_2b was 120 % of HeCon Ab GpH7-A5/GpH7-B3/GpL16-k0.

B6: GpH7-A5/GpH7-B3 variant N325_13S/GpL16-k0 (antibody, human IgG1, kappa)
heavy 1: not shown
heavy 2: not shown
light: B1 light
notes: also called He Ab N325_13S
In the case of B6, the He/Con_2b is 177 % of HeCon Ab GpH7-A5/GpH7-B3/GpL16-k0.

B7: GpH7-A5/GpH7-B3 variant P238_09D/GpL16-k0 (antibody, human IgG1, kappa)
heavy 1: not shown
heavy 2: not shown
light: B1 light
notes: also called He Ab P238_09D
In the case of B7, the He/Con_2b is 221 % of HeCon Ab GpH7-A5/GpH7-B3/GpL16-k0.

B8: GpH7-A5/GpH7-B3 variant S239_10E/GpL16-k0 (antibody, human IgG1, kappa)
heavy 1: not shown
heavy 2: not shown
light: B1 light
notes: also called He Ab S239_10E
Take B8: the He/Con_2b was 181 % of HeCon Ab GpH7-A5/GpH7-B3/GpL16-k0.

B9: GpH7-A5/GpH7-B3 variant L328_10E/GpL16-k0 (antibody, human IgG1, kappa)
heavy 1: not shown
heavy 2: not shown
light: B1 light
notes: also called He Ab L328_10E
As to B9, the He/Con_2b is 172 % of HeCon Ab GpH7-A5/GpH7-B3/GpL16-k0.

B10: GpH7-A5/GpH7-B3 variant P331_16H/GpL16-k0 (antibody, human IgG1, kappa)
heavy 1: not shown
heavy 2: not shown
light: B1 light
notes: also called He Ab P331_16H
B10: the He/Con_2b was 116 % of HeCon Ab GpH7-A5/GpH7-B3/GpL16-k0.

B11: GpH7-A5/GpH7-B3 variant S239_06M/GpL16-k0 (antibody, human IgG1, kappa)
heavy 1: not shown
heavy 2: not shown
light: B1 light
notes: also called He Ab S239_06M
Consider B11, for which the He/Con_2b was 101 % of HeCon Ab GpH7-A5/GpH7-B3/GpL16-k0.

B12: GpH7-A5/GpH7-B3 variant L235_15Y/GpL16-k0 (antibody, human IgG1, kappa)
heavy 1: not shown
heavy 2: not shown
light: B1 light
notes: also called He Ab L235_15Y
As for B12, the He/Con_2b is 149 % of HeCon Ab GpH7-A5/GpH7-B3/GpL16-k0.

B13: GpH7-A5/GpH7-B3 variant L235_04F/GpL16-k0 (antibody, human IgG1, kappa)
heavy 1: not shown
heavy 2: not shown
light: B1 light
notes: also called He Ab L235_04F
For the molecule B13, the He/Con_2b was 118 % of HeCon Ab GpH7-A5/GpH7-B3/GpL16-k0.

B14: GpH7-A5/GpH7-B3 variant N325_04F/GpL16-k0 (antibody, human IgG1, kappa)
heavy 1: not shown
heavy 2: not shown
light: B1 light
notes: also called He Ab N325_04F
On to B14, for which the He/Con_2b is 143 % of HeCon Ab GpH7-A5/GpH7-B3/GpL16-k0.

B15: GpH7-A5/GpH7-B3 variant N325_01G/GpL16-k0 (antibody, human IgG1, kappa)
heavy 1: not shown
heavy 2: not shown
light: B1 light
notes: also called He Ab N325_01G
Turning to B15, the He/Con_2b was 101 % of HeCon Ab GpH7-A5/GpH7-B3/GpL16-k0.

B16: GpH7-A5/GpH7-B3 variant S298_06M/GpL16-k0 (antibody, human IgG1, kappa)
heavy 1: not shown
heavy 2: not shown
light: B1 light
notes: also called He Ab S298_06M
For the molecule B16, the He/Con_2b was 102 % of HeCon Ab GpH7-A5/GpH7-B3/GpL16-k0.

B17: GpH7-A5/GpH7-B3 variant S239_05P/GpL16-k0 (antibody, human IgG1, kappa)
heavy 1: not shown
heavy 2: not shown
light: B1 light
notes: also called He Ab S239_05P
With B17, the He/Con_2b is 102 % of HeCon Ab GpH7-A5/GpH7-B3/GpL16-k0.

B18: GpH7-A5/GpH7-B3 variant L328_09D/GpL16-k0 (antibody, human IgG1, kappa)
heavy 1: not shown
heavy 2: not shown
light: B1 light
notes: also called He Ab L328_09D
Consider B18, for which the He/Con_2b is 199 % of HeCon Ab GpH7-A5/GpH7-B3/GpL16-k0.

B19: GpH7-A5/GpH7-B3 variant K326_07I/GpL16-k0 (antibody, human IgG1, kappa)
heavy 1: not shown
heavy 2: not shown
light: B1 light
notes: also called He Ab K326_07I
Take B19: the He/Con_2b was 199 % of HeCon Ab GpH7-A5/GpH7-B3/GpL16-k0.

B20: GpH7-A5/GpH7-B3 variant P238_19Q/GpL16-k0 (antibody, human IgG1, kappa)
heavy 1: not shown
heavy 2: not shown
light: B1 light
notes: also called He Ab P238_19Q
B20: the He/Con_2b was 110 % of HeCon Ab GpH7-A5/GpH7-B3/GpL16-k0.

B21: GpH7-A5/GpH7-B3 variant S337_08L/GpL16-k0 (antibody, human IgG1, kappa)
heavy 1: not shown
heavy 2: not shown
light: B1 light
notes: also called He Ab S337_08L
With B21, the He/Con_2b was 100 % of HeCon Ab GpH7-A5/GpH7-B3/GpL16-k0.

B22: GpH7-A5/GpH7-B3 variant P331_03V/GpL16-k0 (antibody, human IgG1, kappa)
heavy 1: not shown
heavy 2: not shown
light: B1 light
notes: also called He Ab P331_03V
For the molecule B22, the He/Con_2b was 119 % of HeCon Ab GpH7-A5/GpH7-B3/GpL16-k0.

B23: GpH7-A5/GpH7-B3 variant P238_04F/GpL16-k0 (antibody, human IgG1, kappa)
heavy 1: not shown
heavy 2: not shown
light: B1 light
notes: also called He Ab P238_04F
B23: the He/Con_2b was 312 % of HeCon Ab GpH7-A5/GpH7-B3/GpL16-k0.

B24: GpH7-A5/GpH7-B3 variant P331_07I/GpL16-k0 (antibody, human IgG1, kappa)
heavy 1: not shown
heavy 2: not shown
light: B1 light
notes: also called He Ab P331_07I
Take B24: the He/Con_2b was 114 % of HeCon Ab GpH7-A5/GpH7-B3/GpL16-k0.

B25: GpH7-A5/GpH7-B3 variant P331_20W/GpL16-k0 (antibody, human IgG1, kappa)
heavy 1: not shown
heavy 2: not shown
light: B1 light
notes: also called He Ab P331_20W
On to B25, for which the He/Con_2b was 111 % of HeCon Ab GpH7-A5/GpH7-B3/GpL16-k0.

B26: GpH7-A5/GpH7-B3 variant S267_19Q/GpL16-k0 (antibody, human IgG1, kappa)
heavy 1: not shown
heavy 2: not shown
light: B1 light
notes: also called He Ab S267_19Q
B26: the He/Con_2b is 218 % of HeCon Ab GpH7-A5/GpH7-B3/GpL16-k0.

B27: GpH7-A5/GpH7-B3 variant S267_06M/GpL16-k0 (antibody, human IgG1, kappa)
heavy 1: not shown
heavy 2: not shown
light: B1 light
notes: also called He Ab S267_06M
For the molecule B27, the He/Con_2b is 210 % of HeCon Ab GpH7-A5/GpH7-B3/GpL16-k0.

B28: GpH7-A5/GpH7-B3 variant N325_06M/GpL16-k0 (antibody, human IgG1, kappa)
heavy 1: not shown
heavy 2: not shown
light: B1 light
notes: also called He Ab N325_06M
As to B28, the He/Con_2b was 217 % of HeCon Ab GpH7-A5/GpH7-B3/GpL16-k0.
